This experiment concerns the target T1, Human recombinant TNFα (rhTNFα) (human, UniProt P01375 77-233).
T1 construct: Soluble recombinant cytokine added to L929 cells; also called huTNFα; human TNF
Description: SPR (BIAcore); antibody captured on a goat anti-huIgG Fc surface, huTNF injected at 25 nM. For orientation: SPR reads the build-up and loss of mass on a sensor chip optically.

T1 sequence (P01375 77-233 limits assumed): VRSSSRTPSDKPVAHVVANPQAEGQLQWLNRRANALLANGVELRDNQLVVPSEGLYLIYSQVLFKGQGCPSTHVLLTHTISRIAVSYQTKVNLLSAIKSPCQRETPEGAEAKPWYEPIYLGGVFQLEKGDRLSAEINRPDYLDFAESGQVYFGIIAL

B1: AB441 (antibody, V domains shown)
VH: EVQLVQSGAEVKKPGASVKVSCKASGYTFANYGIIWVRQAPGQGLEWMGWINTYTGKPTYAQKFQGRVTMTTDTSTSTAYMELSSLRSEDTAVYYCARKLFTTMDVTDNAMDYWGQGTTVTVSS
VL: DIQMTQSPSSLSASVGDRVTITCRASQDISQYLNWYQQKPGKAPKLLIYYTSRLQSGVPSRFSGSGSGTDFTLTISSLQPEDFATYFCQQGNTWPPTFGQGTKLEIKR
Take B1: the Stoichiometry came out at 2.

The values above are taken from patent US20170218091A1 (AbbVie / Abbott, published 2017).
